Holding throughout (experiment): split reporter
Assay [1] deals with ADGRL4-CTF1 F409A (human) (UniProt Q9HBW9).
Assay [2] deals with ADGRL4-CTF1 H408A (human) (UniProt Q9HBW9).
In assay [3] the target is ADGRL4-CTF1 S414A (human) (UniProt Q9HBW9).
For assay [4], the target named is ADGRL4-CTF1 L412A (human) (UniProt Q9HBW9).
The target in assay [5] is ADGRL4-CTF1 I411A (human) (UniProt Q9HBW9).

Where only a bound is given, the exact number is not on record here.

For one substance, Gq coupling as percent of wild-type CTF1 and reduction of Gq coupling relative to wild-type CTF1 results are on record in doi:10.1101/2025.10.03.680274.

In assay [1], “LgBiT-mini-Gq (mini-Gs/q version 70) (domain or fragment)” displayed a Gq coupling as percent of wild-type CTF1 of 12%. Besides, the reduction of Gq coupling relative to wild-type CTF1 in assay [2], in assay [3], in assay [4] and in assay [5] was > 50% in each case.
